Measurements taken from patent US20130017550.

B1: Flag-GLK (protein)
chain: MAQEDFELIQRIGSGTYGDVYKARNVNTGELAAIKVIKLEPGEDFAVVQQEIIMMKDCKHPNIVAYFGSYLRRDKLWICMEFCGGGSLQDIYHVTGPLSELQIAYVSRETLQGLYYLHSKGKMHRDIKGANILLTDNGHVKLADFGVSAQITATIAKRKSFIGTPYWMAPEVAAVERKGGYNQLCDLWAVGITAIELAELQPPMFDLHPMRALFLMTKSNFQPPKLKDKMKWSNSFHHFVKMALTKNPKKRPTAEKLLQHPFVTQHLTRSLAIELLDKVNNPDHSTYHDFDDDDPEPLVAVPHRIHSTSRNVREEKTRSEITFGQVKFDPPLRKETEPHHELPDSDGFLDSSEEIYYTARSNLDLQLEYGQGHQGGYFLGADKSLLKSVEEELHQRGHVAHLEDDEGDDDESKHSTLKAKIPPPLPPKPKSIFIPQEMHSTEDENQGTIKRCPMSGSPAKPSQVPPRPPPPRLPPHKPVALGNGMSSFQLNGERDGSLCQQQNEHRGTNLSRKEKKDVPKPISNGLPPTPKVHMGACFSKVFNGCPLKIHCASSWINPDTRDQYLIFGAEEGIYTLNLNELHETSMEQLFPRRCTWLYVMNNCLLSISGKASQLYSHNLPGLFDYARQMQKLPVAIPAHKLPDRILPRKFSVSAKIPETKWCQKCCVVRNPYTGHKYLCGALQTSIVLLEWVEPMQKFMLIKHIDFPIPCPLRMFEMLVVPEQEYPLVCVGVSRGRDFNQVVRFETVNPNSTSSWFTESDTPQTNVTHVTQLERDTILVCLDCCIKIVNLQGRLKSSRKLSSELTFDFQIESIVCLQDSVLAFWKHGMQGRSFRSNEVTQEISDSTRIFRLLGSDRVVVLESRPTDNPTANSNLYILAGHENSY
GST-PKC-θ, Q04759
Chain of GST-PKC-θ, Q04759 (Q04759 whole entry, looked up): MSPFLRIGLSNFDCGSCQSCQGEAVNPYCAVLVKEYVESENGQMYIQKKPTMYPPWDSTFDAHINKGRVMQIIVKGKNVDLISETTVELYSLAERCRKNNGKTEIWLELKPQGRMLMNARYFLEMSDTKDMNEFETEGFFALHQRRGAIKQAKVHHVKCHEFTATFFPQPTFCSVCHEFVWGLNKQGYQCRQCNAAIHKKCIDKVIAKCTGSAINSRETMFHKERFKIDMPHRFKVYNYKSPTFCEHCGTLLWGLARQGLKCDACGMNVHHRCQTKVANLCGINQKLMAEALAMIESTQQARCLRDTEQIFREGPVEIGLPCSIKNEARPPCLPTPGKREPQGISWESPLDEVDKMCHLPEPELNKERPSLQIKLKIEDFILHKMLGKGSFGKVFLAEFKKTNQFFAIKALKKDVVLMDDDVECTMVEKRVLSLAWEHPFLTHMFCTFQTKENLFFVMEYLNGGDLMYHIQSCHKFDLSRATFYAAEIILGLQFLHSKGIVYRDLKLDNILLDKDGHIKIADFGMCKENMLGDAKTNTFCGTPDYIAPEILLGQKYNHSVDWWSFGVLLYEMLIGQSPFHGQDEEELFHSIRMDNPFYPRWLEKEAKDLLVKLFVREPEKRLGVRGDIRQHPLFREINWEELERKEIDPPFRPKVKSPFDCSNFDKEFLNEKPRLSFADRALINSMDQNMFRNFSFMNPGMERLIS
  PKC-θ-T538 phosphorylation in in vitro kinase assays using purified proteins (immunoblot): PKC-θ-T538 was directly phosphorylated by GLK
Myc-PKC-θ
  PKC-θ phosphorylation in in vitro kinase assays (immunoblot): GLK phosphorylated PKC-θ at T538, but not at S676 or S695
